Source: paper PMC7357845

Molecular target: rabbit skeletal muscle G-actin (rabbit) (UniProt P68135)
Experiment: SPR

Kd	Substance
62 nM	untagged ZASP-S WT (from UniProt O75112-6 1-283) (natural protein)
2 nM	His-tagged ZASP-S WT (N21 His-tag) (from UniProt O75112-6 1-283) (natural protein)
